Publication PMC12756731, “Substitution of Zn^2+ with Ni^2+ Alters Kinetic Steps in D‑2-Hydroxyglutarate Dehydrogenase from Pseudomonas aeruginosa PAO1” (ACS Omega, 2025)

T1: D-2-hydroxyglutarate dehydrogenase (P. aeruginosa D2HGDH; EFAD-Zn^2+, EFAD-Ni^2+) (Pseudomonas aeruginosa, UniProt Q9I6H4)
T1 construct: gene PA0317; 6 His-tag at the tail of the gene (C-terminal), pET20b(+), E. coli Rosetta(DE3)pLysS; loaded with Zn2+ or Ni2+
T1 sequence (Q9I6H4 1-464): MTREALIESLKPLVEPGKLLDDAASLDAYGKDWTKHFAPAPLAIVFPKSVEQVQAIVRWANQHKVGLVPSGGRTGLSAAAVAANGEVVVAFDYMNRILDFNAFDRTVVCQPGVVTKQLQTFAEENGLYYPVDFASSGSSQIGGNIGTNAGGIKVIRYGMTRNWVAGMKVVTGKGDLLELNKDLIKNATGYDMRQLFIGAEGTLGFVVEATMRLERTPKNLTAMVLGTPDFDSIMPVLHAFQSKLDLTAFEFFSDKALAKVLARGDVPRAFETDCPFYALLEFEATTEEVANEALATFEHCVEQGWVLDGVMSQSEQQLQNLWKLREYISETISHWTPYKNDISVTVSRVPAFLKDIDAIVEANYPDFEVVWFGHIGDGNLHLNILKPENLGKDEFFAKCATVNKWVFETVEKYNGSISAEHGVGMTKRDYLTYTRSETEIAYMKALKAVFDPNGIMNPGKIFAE

B1: D-2-hydroxyglutarate dehydrogenase (P. aeruginosa D2HGDH; EFAD-Zn^2+, EFAD-Ni^2+) (Pseudomonas aeruginosa PAO1) (protein)
chain: T1 sequence (Q9I6H4 1-464)
notes: 6 His-tag at the tail of the gene (C-terminal), pET20b(+), E. coli Rosetta(DE3)pLysS; loaded with Zn2+ or Ni2+

Columns and labels:
[1] = biological target: T1, D-2-hydroxyglutarate dehydrogenase (P. aeruginosa D2HGDH; EFAD-Zn^2+, EFAD-Ni^2+); assay: UV-vis absorbance of purified enzyme with bound flavin; format: binding; conditions: co-purified oxidized FAD in EFAD-Ni2+ enzyme; maxima at 380 and 450 nm
[2] = substrate: O=C(O)CC[C@@H](O)C(=O)O; assay: PMS-driven oxygen consumption, Clark-type oxygen electrode, initial rates; format: biochemical, Pseudomonas aeruginosa; conditions: 1 mM PMS (saturating), 25 mM NaPO4, pH 7.4, 25 °C
From the text: PMS-driven oxygen consumption, Clark-type oxygen electrode, initial rates on D-2-hydroxyglutarate dehydrogenase (P. aeruginosa D2HGDH; EFAD-Zn^2+, EFAD-Ni^2+)

[3] = Ni2+-substituted enzyme (EFAD-Ni2+), non-native metal
[4] = native Zn2+-loaded enzyme (EFAD-Zn2+)

Molecule | UV-vis absorbance of purified enzyme with bound flavin [1] | Km [2, 3] [µM] | kcat [2, 3] [s⁻¹] | kcat/Km [2, 3] [M⁻¹ s⁻¹] | Km [2, 4] [µM] | kcat [2, 4] [s⁻¹] | kcat/Km [2, 4] [M⁻¹ s⁻¹]
Cc1cc2nc3c(=O)[nH]c(=O)nc-3n(C[C@H](O)[C@H](O)[C@H](O)COP(=O)(O)OP(=O)(O)OC[C@H]3O[C@@H](n4cnc5c(N)ncnc54)[C@H](O)[C@@H]3O)c2cc1C [FAD] | enzyme was in a fully oxidized state with the bound FAD cofactor | – | – | – | – | – | –
B1 | – | 140 ± 10 | 18 ± 1 | 130000 ± 9000 | 150 ± 10 | 30 ± 1 | 205000 ± 10000
